Results on 38 molecules are retold here after patent US20210269480A1 (published 2021).

First the molecules themselves.
T1: human Nectin-4 (human, UniProt Q96NY8 32-349)
T1 construct: a Gly32-Ser349 FLAG construct is described only under the SPR assay; also called PVRL4
T1 sequence (looked up): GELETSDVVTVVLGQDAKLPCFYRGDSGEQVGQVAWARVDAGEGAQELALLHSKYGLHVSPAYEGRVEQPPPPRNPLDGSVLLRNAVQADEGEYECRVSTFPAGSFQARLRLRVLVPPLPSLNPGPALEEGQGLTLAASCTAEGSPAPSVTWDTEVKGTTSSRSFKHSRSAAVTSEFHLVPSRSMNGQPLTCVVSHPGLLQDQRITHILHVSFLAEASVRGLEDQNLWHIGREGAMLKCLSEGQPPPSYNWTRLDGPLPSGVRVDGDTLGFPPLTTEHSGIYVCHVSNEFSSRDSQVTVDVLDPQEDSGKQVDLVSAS

*1 amine or outer side, *2 acyl side, *3 side chain or, on linkers, in order; H or OH if unused. Bridges are numbered along the chain shown (N, C = ends). Where no end group is shown, it is not given here. [ ]: non-standard residue; d: D form. TATA = O=C(CC[*:1])N1CN(C(=O)CC[*:2])CN(C(=O)CC[*:3])C1; 1Nal = N[C@@H](Cc1cccc2ccccc12)C(=O)O; 2Nal = N[C@@H](Cc1ccc2ccccc2c1)C(=O)O; NMehArg = CN[C@@H](CCCCNC(=N)N)C(=O)O; Hyp = O=C(O)[C@@H]1C[C@@H](O)CN1; NMeI = CC[C@H](C)[C@H](NC)C(=O)O; NMeT = CN[C@H](C(=O)O)[C@@H](C)O; dCya = N[C@H](CS(=O)(=O)O)C(=O)O; hArg = N=C(N)NCCCC[C@H](N)C(=O)O; NMeN = CN[C@@H](CC(N)=O)C(=O)O; Agb = N=C(N)NCC[C@H](N)C(=O)O; Nle = CCCC[C@H](N)C(=O)O

This experiment concerns the target T1, human Nectin-4. The experiment is described as follows: FP competition, tracer SEQ ID NO 217. As to the method:
Peptides were diluted to an appropriate concentration in assay buffer as described in the direct binding assay with a maximum of 5% DMSO, then serially diluted 1 in 2. […] Measurements were conducted as for the direct binding assay, however the gain was determined prior to the first measurement. Data analysis was in Systat Sigmaplot version 12.0 where the mP values were fit to a user defined cubic equation to generate a Ki value: […]
As for HDSCPFGCM[dK]SWSWPIWCA (linker 4-8-18 via TATA) [BCY7276], the Ki turned out to be 326 nM. As for Ac-CP[1Nal][dR]CM[Agb]DWSTP[Hyp]WC (linker 1-5-15 via TATA) [BCY8192], affinity was put at a Ki of 5 nM. This Ki is about 65-fold lower than that of the molecule before.

As for DPGCPFGCMPGWSWPIWCA (linker 4-8-18 via TATA) [BCY3392], the Ki was found to be 36.3 nM. This Ki is about 7.3-fold higher than that of the molecule before.

With ACPFGCMKNWSWPIWCTN[hArg] (linker 2-6-16 via TATA, also called 80-09-02-T01-N003) [BCY7281], the Ki amounted to 22.9 nM. ACPFGCM[hArg]NWSWPIWCTNK (linker 2-6-16 via TATA) [BCY7265] showed a Ki of 38.3 nM. The value for QKWCAPLSDYWCN[hArg]ICA (linker 4-12-16 via TATA) [BCY7279] was 44.4 nM. Molecule ACPFGCMSDWSWPIWCSTD (linker 2-6-16 via TATA) [BCY3399] came in with an inhibition constant (Ki) of 410 nM.

Take ACPFGCQEHWSWPIWCTTA (linker 2-6-16 via TATA) [BCY3396]: the Ki came to 102 nM. This Ki is about 4-fold lower than that of the molecule before. The value for ACPFGCMKGWSWPIWCLKD (linker 2-6-16 via TATA) [BCY3395] was 17.4 nM. The value for Q[hArg]WCAPLSDYWCNRICA (linker 4-12-16 via TATA) [BCY7278] was 69 nM. As for Ac-CP[1Nal][dCya]CM[hArg]DWSTP[Hyp]WC (linker 1-5-15 via TATA) [BCY8163], the figure is 3 nM. For Ac-CPF[dD]CM[hArg][NMeN]WSTPIWC (linker 1-5-15 via TATA) [BCY8154], the affinity, expressed as Ki, was 8 nM. The value for [dH]DSCPFGCMKSWSWPIWCA (linker 4-8-18 via TATA) [BCY7272] was 41 nM; that for ACPFGCMXNWSWPIWCTNK (core CPFGCM[K(Ac)]NWSWPIWC; TATA on 3 Cys) [BCY7266] was 41 nM; that for HDSCPFGCMKSWSWPIWCA (linker 4-8-18 via TATA) [BCY3393] was 173 nM. Take HDSCPFGCM[hArg]SWSWPIWCA (linker 4-8-18 via TATA) [BCY7275]: the Ki turned out to be 43.3 nM. As for Ac-CPF[dD]CM[NMehArg]NWSTPIWC (linker 1-5-15 via TATA) [BCY8153], the figure is 35 nM; as for Ac-CP[1Nal][dD]CMPDWSTP[Hyp]WC (linker 1-5-15 via TATA) [BCY8182], 2 nM; as for HDSCPFGCMK(Ac)SWSWPIWCA (linker 4-8-18 via TATA) [BCY7273], 84 nM. The value for ACPFGCIKSWSWPIWCQME (linker 2-6-16 via TATA) [BCY3397] was 33.2 nM; that for QK(Ac)WCAPLSDYWCNRICA (linker 4-12-16 via TATA) [BCY7280] was 219 nM; that for MDTCPFGCMEDWSWPIWCA (linker 4-8-18 via TATA) [BCY3391] was 198 nM. The value for Ac-CP[1Nal][dR]CM[Hyp]DWSTP[Hyp]WC (linker 1-5-15 via TATA) [BCY8194] was 3.5 nM. In turn, Ac-CP[2Nal][dR]CM[hArg]DWSTP[Hyp]WC (linker 1-5-15 via TATA) [BCY8186] came in with a Ki of 6 nM. On to Ac-CPF[dD]CM[hArg]NWSTP[NMeI]WC (linker 1-5-15 via TATA) [BCY8158], for which the Ki stood at 177 nM.

For the molecule Ac-CP[1Nal][dR]CMPDWSTP[Hyp]WC (linker 1-5-15 via TATA) [BCY8193], the affinity, expressed as Ki, was 3 nM. The value for Ac-CPF[dD]CM[hArg]NWS[NMeT]PIWC (linker 1-5-15 via TATA) [BCY8157] was 5 nM. The value for ACPFGCMKTWSWPIWCTDK (linker 2-6-16 via TATA) [BCY3394] was 102 nM. Regarding HDACPFGCMEGWSWPIWCA (linker 4-8-18 via TATA) [BCY3390], the inhibitory constant (Ki) came to 302 nM. Against the preceding molecule, the Ki is about 3-fold higher. HDSCPFGC[Nle]KSWSWPIWCA (linker 4-8-18 via TATA) [BCY7274] showed an inhibition constant Ki of 90.5 nM. Compared with the last molecule, the Ki is about 3.3-fold lower. The value for ACPFGCMKNWSAPIWCTNK (linker 2-6-16 via TATA, also called 80-09-02-T01-N012) [BCY7342] was 310 nM; that for ACPFGCMKNWSWPIWCANK (linker 2-6-16 via TATA, also called 80-09-02-T01-N016) [BCY7346] was 64.9 nM; that for ACPFGCMKNWSWPAWCTNK (linker 2-6-16 via TATA, also called 80-09-02-T01-N014) [BCY7344] was 39.8 nM. The value for ACPFGCMKNWSWPIWCTAK (linker 2-6-16 via TATA, also called 80-09-02-T01-N017) [BCY7347] was 36.1 nM; that for ACPFGCMKNWSWPIWCTNA (linker 2-6-16 via TATA, also called 80-09-02-T01-N018) [BCY7348] was 20.6 nM; that for Ac-CP[1Nal][dR]CM[hArg]DWSTP[Hyp]WC (linker 1-5-15 via TATA) [BCY8184] was 3.2 nM.

The molecule ACWPLDDYWCPRICPQA (linker 2-10-14 via TATA) [BCY3401] displayed a Ki of 154 nM. As for ACPFGCQEDWSWPIWCLSE (linker 2-6-16 via TATA) [BCY3398], the figure is 164 nM.
